From publication PMC3481545 come the findings set out here.

Residue numbers refer to the chain shown, from its start. Names and notes keep the numbering of the source.

The assay has as its target Activin (UniProt P08476). Put plainly: SPR. (Surface plasmon resonance follows binding to a sensor surface in real time, without labels.)

B1: human recombinant BMPR-II ECD, wild type (domain or fragment)
chain: ASQNQERLCAFKDPYQQDLGIGESRISHENGTILCSKGSTCYGLWEKSKGDINLVKQGCWSHIGDPQECHYEECVVTTTPPSIQNGTYRFCCCSTDLCNVNFTENFPPPDTTPLSPPHSFNRDET
On to B1, for which the Kd (in general, the concentration at which binding is half-saturated) worked out at 26 µM.

B2: BMPR-II ECD S107P (domain or fragment)
chain: B1 chain with S82P
B2 returned a Kd of 23 µM.

B3: BMPR-II ECD Y40R (domain or fragment)
chain: B1 chain with Y15R
B3 had a Kd of 46 µM.

B4: BMPR-II ECD Y40Q (domain or fragment)
chain: B1 chain with Y15Q
B4 showed a Kd of 35 µM.

B5: BMPR-II ECD G47N (domain or fragment)
chain: B1 chain with G22N
B5 gave a Kd of 30 µM.

B6: BMPR-II ECD Y40G (domain or fragment)
chain: B1 chain with Y15G
B6 came in with a Kd of 54 µM.

B7: BMPR-II ECD Y40P (domain or fragment)
chain: B1 chain with Y15P
The molecule B7 came in with a Kd of 70 µM.
